In article PMC2861713:

Key:
[1] = molecular target: (His)10-p34ΔN/ΔC (p34 residues 37–292 linked to a 10 histidine tag) (Helicobacter pylori); assay: SEC; in the presence of 4 M urea; Superose 6 10/300 GL for (His)10-p34, Superose 12 10/300 GL (1.0 ml/min) for (His)10-p34ΔN/ΔC; mass against marker proteins
[2] = molecular target: (His)10-p34(37–319) (Helicobacter pylori); assay: SEC; Superose 6 10/300 GL, 0.5 ml/min, in the presence of 10% glycerol; mass from the Kav of the most prominent peak against marker proteins
[3] = molecular target: (His)10-p34(37–319) (Helicobacter pylori); assay: SEC; Superose 6 10/300 GL, in the presence of 2 M urea
[4] = molecular target: (His)10-p34(37–319) (Helicobacter pylori); assay: SEC; in the presence of 4 M urea; Superose 6 10/300 GL for (His)10-p34, Superose 12 10/300 GL (1.0 ml/min) for (His)10-p34ΔN/ΔC; mass against marker proteins

Substance: (His)10-p34ΔN/ΔC (p34 residues 37–292 linked to a 10 histidine tag) (domain or fragment)
- stoichiometry N [1]: 6 subunits

Substance: (His)10-p34(37–319) (domain or fragment)
- stoichiometry N [2]: 6 subunits
- stoichiometry N [3]: 6 subunits
- stoichiometry N [4]: 6 subunits
